Broadly, the Kd is the equilibrium constant for the complex coming apart.

This passage reports Kd results from article PMC6807164, “The lipid transfer protein Saposin B does not directly bind CD1d for lipid antigen loading” (Wellcome Open Research, 2019).

The target in experiment [1] is Apolipoprotein B (Homo sapiens) (UniProt P04114). As to conditions: cited from earlier work.
The target of a further experiment is CD14 (Homo sapiens) (UniProt P08571). The following applies: cited from earlier work.
Experiment [2] concerns the target T1, CD1d-β2m complex (glycosylated CD1d-H6 with untagged β2m) (human, UniProt P15813 20-301; P61769 21-119, glycosylated (N-linked glycans from expression in HEK293F)).
T1 construct: CD1d, human, extracellular domain, residues 20-301 of UniProt P15813; expressed behind the vector's N-terminal secretion signal; β-2-microglobulin, human, residues 21-119 of UniProt P61769; untagged; Carries endogenous human lipids as purified; The results call β2m full-length, the methods give residues 21-119; also called CD1d-H 6-β 2m; gCD1d; not shown: His6, C-terminal, kept
Kind of experiment: equilibrium binding assay (depletion of prey from the supernatant, no wash steps); CD1d-β2m on Ni-NTA agarose beads at 0-40 μM, SapB at 680 nM; 50 mM HEPES pH 7.0, 150 mM NaCl, 0.05% digitonin, 2.5 mM CaCl2, 2.5 mM MgCl2; 1 hour at room temperature; unbound SapB detected by SYPRO Ruby; both proteins with the endogenous lipids they co-purify with. The following applies: both partners purified.

Sequence of CD14 (Homo sapiens) (P08571 20-345): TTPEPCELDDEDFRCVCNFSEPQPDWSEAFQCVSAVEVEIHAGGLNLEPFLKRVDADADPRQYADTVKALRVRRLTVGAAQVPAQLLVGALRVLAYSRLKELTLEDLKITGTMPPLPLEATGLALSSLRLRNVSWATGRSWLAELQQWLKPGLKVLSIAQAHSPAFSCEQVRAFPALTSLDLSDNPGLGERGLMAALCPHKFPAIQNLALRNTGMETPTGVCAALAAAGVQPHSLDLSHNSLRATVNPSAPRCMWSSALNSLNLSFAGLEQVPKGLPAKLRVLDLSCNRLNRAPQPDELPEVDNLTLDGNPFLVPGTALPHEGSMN
Sequence of Apolipoprotein B (Homo sapiens) (P04114 28-2179): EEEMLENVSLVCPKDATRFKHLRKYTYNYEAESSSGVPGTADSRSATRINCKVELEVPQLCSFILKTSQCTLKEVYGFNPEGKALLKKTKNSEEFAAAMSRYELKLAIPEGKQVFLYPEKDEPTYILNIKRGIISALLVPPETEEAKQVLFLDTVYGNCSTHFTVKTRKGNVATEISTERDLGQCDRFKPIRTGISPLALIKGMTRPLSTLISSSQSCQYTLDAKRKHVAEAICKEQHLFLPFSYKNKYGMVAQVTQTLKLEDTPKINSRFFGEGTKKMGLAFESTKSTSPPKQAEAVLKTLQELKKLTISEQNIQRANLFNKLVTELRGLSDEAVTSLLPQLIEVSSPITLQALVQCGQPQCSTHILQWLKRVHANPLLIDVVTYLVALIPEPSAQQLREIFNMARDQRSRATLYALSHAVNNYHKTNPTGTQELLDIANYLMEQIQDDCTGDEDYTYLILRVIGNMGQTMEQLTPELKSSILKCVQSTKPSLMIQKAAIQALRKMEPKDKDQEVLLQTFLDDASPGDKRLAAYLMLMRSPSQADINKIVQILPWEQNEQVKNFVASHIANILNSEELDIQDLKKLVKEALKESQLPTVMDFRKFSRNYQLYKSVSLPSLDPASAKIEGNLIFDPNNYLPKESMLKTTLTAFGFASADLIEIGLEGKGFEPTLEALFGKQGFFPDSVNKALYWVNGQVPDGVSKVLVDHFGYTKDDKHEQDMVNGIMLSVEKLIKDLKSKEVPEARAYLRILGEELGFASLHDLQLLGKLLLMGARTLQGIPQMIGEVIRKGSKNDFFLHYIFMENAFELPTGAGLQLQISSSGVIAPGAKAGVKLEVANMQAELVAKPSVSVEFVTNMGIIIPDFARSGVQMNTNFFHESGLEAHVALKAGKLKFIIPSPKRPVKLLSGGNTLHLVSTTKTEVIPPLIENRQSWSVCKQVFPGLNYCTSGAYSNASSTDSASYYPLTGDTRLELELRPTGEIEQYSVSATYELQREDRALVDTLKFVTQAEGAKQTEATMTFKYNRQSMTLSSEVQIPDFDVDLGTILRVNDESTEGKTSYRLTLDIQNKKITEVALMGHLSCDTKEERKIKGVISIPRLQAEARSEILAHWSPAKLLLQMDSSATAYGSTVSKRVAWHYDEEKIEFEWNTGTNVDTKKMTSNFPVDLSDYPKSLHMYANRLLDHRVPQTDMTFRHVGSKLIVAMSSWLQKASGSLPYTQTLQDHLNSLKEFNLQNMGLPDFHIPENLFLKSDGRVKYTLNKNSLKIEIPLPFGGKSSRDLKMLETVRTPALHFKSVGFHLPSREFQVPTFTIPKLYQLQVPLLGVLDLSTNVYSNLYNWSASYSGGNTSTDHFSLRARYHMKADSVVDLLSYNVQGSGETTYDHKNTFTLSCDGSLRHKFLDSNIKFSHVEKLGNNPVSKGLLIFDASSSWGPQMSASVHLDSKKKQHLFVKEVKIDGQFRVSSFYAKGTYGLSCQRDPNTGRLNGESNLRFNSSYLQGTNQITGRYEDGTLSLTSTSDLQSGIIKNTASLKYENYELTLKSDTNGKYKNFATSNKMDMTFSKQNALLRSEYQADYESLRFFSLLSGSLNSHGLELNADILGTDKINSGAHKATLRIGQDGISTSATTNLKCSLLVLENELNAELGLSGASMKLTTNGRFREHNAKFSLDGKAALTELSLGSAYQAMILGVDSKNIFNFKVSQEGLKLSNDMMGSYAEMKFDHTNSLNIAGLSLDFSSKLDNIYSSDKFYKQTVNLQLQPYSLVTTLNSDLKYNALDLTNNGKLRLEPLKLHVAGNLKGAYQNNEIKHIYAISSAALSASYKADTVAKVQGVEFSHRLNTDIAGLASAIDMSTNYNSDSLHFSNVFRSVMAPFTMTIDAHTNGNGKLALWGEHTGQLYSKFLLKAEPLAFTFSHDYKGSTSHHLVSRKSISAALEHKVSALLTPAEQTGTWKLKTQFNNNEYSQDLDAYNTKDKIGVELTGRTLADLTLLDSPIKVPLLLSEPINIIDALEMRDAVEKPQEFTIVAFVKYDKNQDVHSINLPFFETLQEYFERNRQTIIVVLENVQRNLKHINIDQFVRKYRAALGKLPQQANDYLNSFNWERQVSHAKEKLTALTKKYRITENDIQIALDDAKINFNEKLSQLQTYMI

Consider “Microsomal Triglyceride Transfer protein (from UniProt P55157)”, for which, in experiment [1], the Kd was 20 nM. For the molecule “LPS binding protein (LBP) (from UniProt P18428)”, the dissociation constant Kd with CD14 (Homo sapiens) is 5.52 nM.

B1: Saposin B, untagged, expressed in E. coli (unglycosylated) (natural protein, human, UniProt P07602 195-274, looked up)
chain: GDVCQDCIQMVTDIQTAVRTNSTFVQALVEHVKEECDRLGPGMADICKNYISQYSEIAIQMMMHMQPKEICALVGFCDEV
notes: Saposin B, the segment of human prosaposin (PSAP) residues 195-274, UniProt P07602; Cloned into pET-15b by NcoI and XhoI to give untagged protein; Co-purifies with E. coli lipid; also called SapB; ugSapB; source: E. coli Origami (DE3), purified (heat treatment, anion exchange, SEC)
On to B1, for which the dissociation constant Kd in experiment [2] is > 40000 nM.
